According to patent US20230357364A1 (INTERNATIONAL AIDS VACCINE INITIATIVE, published 2023):
Numbering of substitutions follows the chain as printed.

B1: L6.dP03H10 (antibody, V domains shown)
VH: QVQLVQSGAEVKKPGSSVKVSCKASGGTFSIYAITWVRQAPGQGLEWMGGIIPIIGTANYAQKFQGRVTITADKSTSTAYMELSSLRSEDTAVYYCARDFRYCSSTRCYFWFDPWGQGTLVTVSS
VL: DIQMTQSPSSLSASVGDRVTITCRASQNISSYLNWYQQEAGKAPKLLIYAASSLQSGVPSRFSGSGSGTDFTLTISSLQPEDFATYYCQQSYSTPRTFGQGTKVDIK
B2: L6.dP02E05 (antibody, V domains shown)
VH: QVQLVQSGSELKKPGASVKVSCKASGYTFATYALNWVRQAPGQGLEWMGWVNTNTGSPTYAQGFTGRFVFSFDTSVSTAYLQIRTLKAEDTAVYYCAVYYYDSGSPGWFDPWGQGTLVTVSS
VL: B1 VL with M4L, N28T, I29A, E39K, A40P, K45N, G68V, R96P
notes: human IgG1
B3: L6.dP04A03 (antibody, V domains shown)
VH: QVQLVQSGAEVKKPGSSVKVSCKASGGTFSSSAISWVRQAPGQGLEWMGGIIPILDITNYAQKFQGRVTITADKSTSTAFMELSSLRSEDTAVYYCALRNQWDLLVYWGQGTLVTVSS
VL: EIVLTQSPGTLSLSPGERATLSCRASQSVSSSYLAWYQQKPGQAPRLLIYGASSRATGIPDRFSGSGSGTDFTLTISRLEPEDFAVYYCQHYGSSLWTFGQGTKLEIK
B4: L6.P4A3.1 (antibody, V domains shown)
VH: B3 VH with T28I, T58S, R99T
VL: EIVLTQSPGTLSLSPGERATLSCRASQRVSSSYLAWYQQKPGQAPRLLIYGAESRATGIPDRFSGSGSGTDFTLTISRLEPEDFAVYYCQHYGSSLWTFGQGTKLEIK
B5: L6.dP04E05 (antibody, V domains shown)
VH: EVQLVESGGGLVQPGRSLRLSCAASGFTFDDYAMHWVRQAPGKGLEWVSGISWNSDNIGYADSVKGRFTVSRDNAKNSLYLQMNSLRAEDTALYYCTKDIHRKNDYYDILTGYYRVRYYYYAMDVWGQGTTVTVSS
VL: QSVLTQPPSASGSPGQSVTISCTGTSSDAGGYNYVSWYQQHPGKAPKLMIYEVIKRPSGVPDRFSGSKSGNTASLTVSGLQAEDEADYYCSSFAGTSVVFGGGTKLTVL
notes: human IgG1

Assays:
Assay in all cases: cell-based or functional assay
[1] = target: SARS-CoV-2 spike V483A (pseudovirus) (SARS-CoV-2, UniProt P0DTC2 14-1273)
[2] = target: SARS-CoV-2 spike V367F (pseudovirus) (SARS-CoV-2, UniProt P0DTC2 14-1273)
[3] = target: T1, SARS-CoV-2 spike D614G (pseudovirus) (SARS-CoV-2, UniProt P0DTC2 14-1273)
[4] = target: SARS-CoV-2 spike G476S (pseudovirus) (SARS-CoV-2, UniProt P0DTC2 14-1273)
[5] = target: T1, SARS-CoV-2 spike D614G (pseudovirus); remark: listed apart in the source

Binder	neutralization IC50 [1] [ng/mL]	neutralization IC50 [2] [ng/mL]	neutralization IC50 [3] [ng/mL]	neutralization IC50 [4] [ng/mL]	PSV in HeLa-ACE2 cells IC50 [5] [ng/mL]
B1	1.9	0.25	1.9	0.08	
B2	3.9	0.04	3.9		
B3	160		24	84	
B4					13
B5	0.55	0.07	0.52	0.16	8
